Molecular target: human VEGF-A (human) (UniProt P15692)
Assay: cell-based or functional assay

human VEGF-A (human), sequence (P15692 other isoform, or with tags, fused parts or gaps limits assumed): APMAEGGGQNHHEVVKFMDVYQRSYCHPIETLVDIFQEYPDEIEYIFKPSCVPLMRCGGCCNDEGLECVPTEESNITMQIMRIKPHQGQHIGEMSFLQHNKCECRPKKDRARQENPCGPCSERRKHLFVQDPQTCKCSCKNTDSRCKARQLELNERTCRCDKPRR
EYLEA (aflibercept) (Fc fusion), sequence (chain): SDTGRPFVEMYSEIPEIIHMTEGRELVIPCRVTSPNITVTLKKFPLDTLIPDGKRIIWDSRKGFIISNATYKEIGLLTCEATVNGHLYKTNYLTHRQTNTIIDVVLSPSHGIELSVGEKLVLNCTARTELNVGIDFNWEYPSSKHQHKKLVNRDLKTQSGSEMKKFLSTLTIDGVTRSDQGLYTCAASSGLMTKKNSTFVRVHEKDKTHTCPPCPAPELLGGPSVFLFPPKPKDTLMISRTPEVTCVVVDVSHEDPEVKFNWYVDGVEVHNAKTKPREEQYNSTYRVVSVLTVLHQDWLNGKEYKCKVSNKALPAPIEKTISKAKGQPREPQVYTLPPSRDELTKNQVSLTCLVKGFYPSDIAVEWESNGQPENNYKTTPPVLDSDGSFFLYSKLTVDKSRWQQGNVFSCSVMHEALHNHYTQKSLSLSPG

## EYLEA (aflibercept) (Fc fusion)
  ERK1/2 phosphorylation: Bottom plateau (AlphaLISA counts) (AlphaLISA counts): 21700
  ERK1/2 phosphorylation: Top plateau (AlphaLISA counts) (AlphaLISA counts): 109000
  HRMEC proliferation, delta area under the curve vs. basal: Top plateau (arbitrary units) (arbitrary units): 129
  HRMEC proliferation: Bottom plateau (arbitrary units) (arbitrary units): 13.3
  HRMEC proliferation: IC50 (pM): 171 pM
  HRMEC proliferation: LogIC50: -9.77
  IC50 (p38 MAPK phosphorylation): 0.74 nM
  Src phosphorylation (Y419): Bottom plateau (AlphaLISA counts) (AlphaLISA counts): 2210
  Src phosphorylation (Y419): IC50: 0.933 nM
  Src phosphorylation (Y419): LogIC50: -9.37
  Src phosphorylation (Y419): Top plateau (AlphaLISA counts) (AlphaLISA counts): 3420
  inhibition of VEGF-induced HRMEC proliferation: 16 nM
  p38-MAPK phosphorylation (T180/Y182): Bottom plateau (AlphaLISA counts) (AlphaLISA counts): 8890
  p38-MAPK phosphorylation (T180/Y182): IC50: 0.748 nM
  p38-MAPK phosphorylation (T180/Y182): LogIC50: -9.13
  p38-MAPK phosphorylation (T180/Y182): Top plateau (AlphaLISA counts) (AlphaLISA counts): 23100

From patent US20250051460A1
